Residue numbers refer to the chain shown, from its start.
T1: human A33 antigen, full length, on cells (human, UniProt Q99795 22-319)
T1 construct: CHO cells transfected with full length A33 cDNA (A33-CHO), or endogenous antigen of LS174T (colon) and AsPC-1 (pancreatic) tumour cells; The cell line is named under assay; also called A33-CHO; A33 antigen on LS174T cells
T1 sequence: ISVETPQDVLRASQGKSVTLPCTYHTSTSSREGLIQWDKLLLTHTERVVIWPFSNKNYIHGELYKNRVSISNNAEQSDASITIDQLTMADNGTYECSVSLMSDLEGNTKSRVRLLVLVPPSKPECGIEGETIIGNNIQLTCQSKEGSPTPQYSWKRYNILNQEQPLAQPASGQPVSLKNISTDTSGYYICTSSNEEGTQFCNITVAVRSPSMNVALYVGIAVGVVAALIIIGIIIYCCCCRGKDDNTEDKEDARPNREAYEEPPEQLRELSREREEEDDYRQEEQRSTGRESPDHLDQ

T2: human recombinant A33 antigen (human, UniProt Q99795 22-235)
T2 construct: also called rH-GPA33; rHGPA33
T2 sequence: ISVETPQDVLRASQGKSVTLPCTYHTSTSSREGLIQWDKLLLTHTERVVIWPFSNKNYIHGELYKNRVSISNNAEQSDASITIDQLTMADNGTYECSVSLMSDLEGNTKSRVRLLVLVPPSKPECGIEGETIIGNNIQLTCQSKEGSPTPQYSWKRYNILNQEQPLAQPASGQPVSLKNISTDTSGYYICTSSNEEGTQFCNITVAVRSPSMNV

B1: humanized 31.1 antibody #1 (cdr-HC + cdr-LC) (antibody, human IgG1, kappa, V domains shown)
VH: QIQLVQSGAEVKKPGASVKVSCKASGYTFTNYGMNWVKQAPGKGLKWMGWINTYTGEPTYADDFKGRFAFTLDTSISTAYMELSRLRSDDTAVYFCARAYYGKYFDYWGQGTTVTVSS
VL: SIVMTQSPSSLSASVGDRVTITCKASQSVSNDVAWYQQKPGQSPKLLIYYASNRYTGVPDRFSGSGYGTDFTLTISSLQPEDFAVYFCQQDYSSPLTFGAGTKLEIKR
notes: Full heavy (448 aa) and light (214 aa) chains; transient Expi293 expression, tested as culture supernatant; also called Sample ID 1; cdr31.1-HC + cdr31.1-LC
B2: humanized 31.1 antibody #2 (cdr-HC + abb-LC) (antibody, human IgG1, kappa, V domains shown)
VH: B1 VH
VL: B1 VL with V3Q, K24R, T56S
notes: Full heavy and light chains; transient Expi293 expression, tested as culture supernatant; also called Sample ID 2; cdr31.1-HC + abb31.1-LC
B3: humanized 31.1 antibody #3 (cdr-HC + sdr-LC) (antibody, human IgG1, kappa, V domains shown)
VH: B1 VH
VL: B1 VL with V3Q, K24R, V29I, V33L
notes: Full heavy and light chains; transient Expi293 expression, tested as culture supernatant; also called Sample ID 3; cdr31.1-HC + sdr31.1-LC
B4: humanized 31.1 antibody #4 (cdr-HC + ven-LC) (antibody, human IgG1, kappa, V domains shown)
VH: B1 VH
VL: B1 VL with A13V, L73F, L78V, F83L, I106L
notes: Full heavy and light chains; transient Expi293 expression, tested as culture supernatant; also called Sample ID 4; cdr31.1-HC + ven31.1-LC
B5: humanized 31.1 antibody #7 (abb-HC + sdr-LC) (antibody, human IgG1, kappa, V domains shown)
VH: B1 VH with K38R, K46E, D62Q, D63K, K65Q, F68V, A69T
VL: B1 VL with V3Q, K24R, V29I, V33L
notes: Full heavy and light chains; transient Expi293 expression, tested as culture supernatant; also called Sample ID 7; abb31.1-HC + sdr31.1-LC
B6: humanized 31.1 antibody #8 (abb-HC + ven-LC) (antibody, human IgG1, kappa, V domains shown)
VH: B1 VH with K38R, K46E, D62Q, D63K, K65Q, F68V, A69T
VL: B1 VL with A13V, L73F, L78V, F83L, I106L
notes: Full heavy and light chains; transient Expi293 expression, tested as culture supernatant; also called Sample ID 8; abb31.1-HC + ven31.1-LC
B7: humanized 31.1 antibody #9 (sdr-HC + cdr-LC) (antibody, human IgG1, kappa, V domains shown)
VH: B1 VH with K38R, K46E, T53P, D62Q, D63K, K65Q, F68V, A69T
VL: B1 VL
notes: Full heavy and light chains; transient Expi293 expression, tested as culture supernatant; also called Sample ID 9; sdr31.1-HC + cdr31.1-LC
B8: humanized 31.1 antibody #12 (sdr-HC + ven-LC) (antibody, human IgG1, kappa, V domains shown)
VH: B1 VH with K38R, K46E, T53P, D62Q, D63K, K65Q, F68V, A69T
VL: B1 VL with A13V, L73F, L78V, F83L, I106L
notes: Full heavy and light chains; transient Expi293 expression, tested as culture supernatant; also called Sample ID 12; sdr31.1-HC + ven31.1-LC
B9: humanized 31.1 antibody #13 (ven-HC + cdr-LC) (antibody, human IgG1, kappa, V domains shown)
VH: B1 VH with A9P, V20I, K43Q, M81L, L83I, V114L
VL: B1 VL
notes: Full heavy and light chains; transient Expi293 expression, tested as culture supernatant; also called Sample ID 13; ven31.1-HC + cdr31.1-LC
B10: humanized 31.1 antibody #15 (ven-HC + sdr-LC) (antibody, human IgG1, kappa, V domains shown)
VH: B1 VH with A9P, V20I, K43Q, M81L, L83I, V114L
VL: B1 VL with V3Q, K24R, V29I, V33L
notes: Full heavy and light chains; transient Expi293 expression, tested as culture supernatant; also called Sample ID 15; ven31.1-HC + sdr31.1-LC
B11: humanized 31.1 antibody #5 (abb31.1-HC + cdr31.1-LC) (antibody, human IgG1, kappa, V domains shown)
VH: B1 VH with K38R, K46E, D62Q, D63K, K65Q, F68V, A69T
VL: B1 VL
notes: Full heavy and light chains; supernatant in the first screen, Protein A/G purified in the second round; also called Sample ID 5; abb-HC + cdr-LC
B12: humanized 31.1 antibody #6 (abb31.1-HC + abb31.1-LC) (antibody, human IgG1, kappa, V domains shown)
VH: B1 VH with K38R, K46E, D62Q, D63K, K65Q, F68V, A69T
VL: B1 VL with V3Q, K24R, T56S
notes: Full heavy and light chains; supernatant in the first screen, Protein A/G purified in the second round; also called Sample ID 6; abb-HC + abb-LC
B13: humanized 31.1 antibody #10 (sdr-HC + abb-LC) (antibody, human IgG1, kappa, V domains shown)
VH: B1 VH with K38R, K46E, T53P, D62Q, D63K, K65Q, F68V, A69T
VL: B1 VL with V3Q, K24R, T56S
notes: Full heavy and light chains; transient Expi293 expression, tested as culture supernatant; also called Sample ID 10; sdr31.1-HC + abb31.1-LC
B14: humanized 31.1 antibody #14 (ven-HC + abb-LC) (antibody, human IgG1, kappa, V domains shown)
VH: B1 VH with A9P, V20I, K43Q, M81L, L83I, V114L
VL: B1 VL with V3Q, K24R, T56S
notes: Full heavy and light chains; transient Expi293 expression, tested as culture supernatant; also called Sample ID 14; ven31.1-HC + abb31.1-LC
B15: humanized 31.1 antibody #16 (ven31.1-HC + ven31.1-LC) (antibody, human IgG1, kappa, V domains shown)
VH: B1 VH with A9P, V20I, K43Q, M81L, L83I, V114L
VL: B1 VL with A13V, L73F, L78V, F83L, I106L
notes: Full heavy and light chains; supernatant in the first screen, Protein A/G purified in the third round; also called Sample ID 16; ven-HC + ven-LC
B16: H31.1 #6-biotin (antibody, human IgG1, kappa, V domains shown)
VH: B1 VH with K38R, K46E, D62Q, D63K, K65Q, F68V, A69T
VL: B1 VL with V3Q, K24R, T56S
modifications: biotinylated antibody, sites not stated
notes: Biotinylated form of antibody #6; also called biotinylated #6; biotinylated h31.1 #6
B17: H31.1 #5-biotin (antibody, human IgG1, kappa, V domains shown)
VH: B1 VH with K38R, K46E, D62Q, D63K, K65Q, F68V, A69T
VL: B1 VL
modifications: biotinylated antibody, sites not stated
notes: Biotinylated form of antibody #5; also called biotinylated #5; biotinylated h31.1 #5

target: T1, human A33 antigen, full length, on cells; test: IHC on LS174T FFPE sections, 20ug/mL
Experimental: (§1) Human IgG ELISA, rH-GPA33 Binding ELISA, cell Flow Cytometry (LS174T or AsPAC1), IHC staining (LS174T FFPE, tumor FFPE and Frozen tumor sections) and Coomassie blue staining of SDS-PAGE gel were used for the screening. Antibody in the culture supernatant was purified by Protein A/G purification in the column and dissolved in PBS buffer after three times dialysis. Aliquots of the antibodies were kept at -20° C. for storage.
(§2) Each combination was produced by transient transfection by using Expi293 Expression System Kit (Gibco, cat# A14635). […] Methods of Human IgG ELISA, rH-GPA33 Binding ELISA, LS174T cell Flow Cytometry, IHC staining on LS174T FFPE sections and Coomassie blue staining of SDS-PAGE gel were used for the initial screening.

Row | Binder | H-Score of IHC [H-Score]
1 | B1 | 0
2 | B2 | 0
3 | B3 | 0
4 | B4 | 0
5 | B5 | 120
6 | B6 | 125
7 | B7 | 150
8 | B8 | 30
9 | B9 | 20
10 | B10 | 90

target: T1, human A33 antigen, full length, on cells; test: flow cytometry, AsPC-1 cells (second AsPC-1 column)

Row | Binder | EC50 [µg/mL]
11 | B11 | 0.122
12 | B12 | 0.152

target: T1, human A33 antigen, full length, on cells; test: flow cytometry on LS174T cells, 0.37ug/mL
Experimental: as §1, §2

Row | Binder | MFI [MFI]
13 | B11 | 804
14 | B1 | 878
15 | B2 | 821
16 | B3 | 520
17 | B4 | 726
18 | B12 | 628
19 | B5 | 481
20 | B6 | 934
21 | B7 | 6.65
22 | B13 | 6.2
23 | B8 | 10.6
24 | B9 | 1150
25 | B14 | 1060
26 | B10 | 689
27 | B15 | 966

target: T1, human A33 antigen, full length, on cells; test: IHC on LS174T FFPE sections, 20ug/mL, first result

Row | Binder | H-Score of IHC [H-Score]
28 | B11 | 240
29 | B12 | 230
30 | B13 | 240
31 | B14 | 125
32 | B15 | 0

target: T1, human A33 antigen, full length, on cells; test: flow cytometry, LS-174T cells

Row | Binder | EC50 [µg/mL]
33 | B11 | 0.0625
34 | B12 | 0.0809

target: T1, human A33 antigen, full length, on cells; test: IHC on LS174T FFPE sections, 20ug/mL, repeat result

Row | Binder | H-Score of IHC [H-Score]
35 | B11 | 100
36 | B12 | 240
37 | B13 | 115
38 | B14 | 30
39 | B15 | 0

target: T2, human recombinant A33 antigen; test: rH-GPA33 binding ELISA

Row | Binder | EC50 [µg/mL]
40 | B11 | 0.396
41 | B16 | 12.8
42 | B12 | 1.23
43 | B17 | 0.679

target: T2, human recombinant A33 antigen; test: rH-GPA33 binding ELISA, 2ug/mL of 31.1, supernatant
Experimental: as §1, §2

Row | Binder | OD Value of rH-GPA33 Binding ELISA [OD]
44 | B11 | 0.85
45 | B1 | 0.8
46 | B2 | 0.86
47 | B3 | 0.29
48 | B4 | 1.27
49 | B12 | 0.74
50 | B5 | 0.2
51 | B6 | 1.2
52 | B7 | 0.07
53 | B13 | 0.07
54 | B8 | 0.06
55 | B9 | 1.27
56 | B14 | 1.44
57 | B10 | 0.46
58 | B15 | 1.74

target: T1, human A33 antigen, full length, on cells; test: flow cytometry, AsPC-1 cells (first AsPC-1 column)

Row | Binder | EC50 [µg/mL]
59 | B11 | 0.235
60 | B16 | 0.368
61 | B12 | 0.276
62 | B17 | 0.408

Source: patent publication US20230295298A1 (PRECISION BIOLOGICS, published 2023)
